Sequences and labels used below:
B1: FLAG epitope-tagged STAG1, wild type (transient, HEK293) [human] / RAD21 (endogenous, HEK293) [human (endogenous in HEK293)] (parent complex)
chain 1: MITSELPVLQDSTNETTAHSDAGSELEETEVKGKRKRGRPGRPPSTNKKPRKSPGEKSRIEAGIRGAGRGRANGHPQQNGEGEPVTLFEVVKLGKSAMQSVVDDWIESYKQDRDIALLDLINFFIQCSGCRGTVRIEMFRNMQNAEIIRKMTEEFDEDSGDYPLTMPGPQWKKFRSNFCEFIGVLIRQCQYSIIYDEYMMDTVISLLTGLSDSQVRAFRHTSTLAAMKLMTALVNVALNLSIHQDNTQRQYEAERNKMIGKRANERLELLLQKRKELQENQDEIENMMNSIFKGIFVHRYRDAIAEIRAICIEEIGVWMKMYSDAFLNDSYLKYVGWTLHDRQGEVRLKCLKALQSLYTNRELFPKLELFTNRFKDRIVSMTLDKEYDVAVEAIRLVTLILHGSEEALSNEDCENVYHLVYSAHRPVAVAAGEFLHKKLFSRHDPQAEEALAKRRGRNSPNGNLIRMLVLFFLESELHEHAAYLVDSLWESSQELLKDWECMTELLLEEPVQGEEAMSDRQESALIELMVCTIRQAAEAHPPVGRGTGKRVLTAKERKTQIDDRNKLTEHFIITLPMLLSKYSADAEKVANLLQIPQYFDLEIYSTGRMEKHLDALLKQIKFVVEKHVESDVLEACSKTYSILCSEEYTIQNRVDIARSQLIDEFVDRFNHSVEDLLQEGEEADDDDIYNVLSTLKRLTSFHNAHDLTKWDLFGNCYRLLKTGIEHGAMPEQIVVQALQCSHYSILWQLVKITDGSPSKEDLLVLRKTVKSFLAVCQQCLSNVNTPVKEQAFMLLCDLLMIFSHQLMTGGREGLQPLVFNPDTGLQSELLSFVMDHVFIDQDEENQSMEGDEEDEANKIEALHKRRNLLAAFSKLIIYDIVDMHAAADIFKHYMKYYNDYGDIIKETLSKTRQIDKIQCAKTLILSLQQLFNELVQEQGPNLDRTSAHVSGIKELARRFALTFGLDQIKTREAVATLHKDGIEFAFKYQNQKGQEYPPPNLAFLEVLSEFSSKLLRQDKKTVHSYLEKFLTEQMMERREDVWLPLISYRNSLVTGGEDDRMSVNSGSSSSKTSSVRNKKGRPPLHKKRVEDESLDNTWLNRTDTMIQTPGPLPAPQLTSTVLRENSRPMGDQIQEPESEHGSEPDFLHNPQMQISWLGQPKLEDLNRKDRTGMNYMKVRTGVRHAVRGLMEEDAEPIFEDVMMSSRSQLEDMNEEFEDTMVIDLPPSRNRRERAELRPDFFDSAAIIEDDSGFGMPMF
chain 2: MFYAHFVLSKRGPLAKIWLAAHWDKKLTKAHVFECNLESSVESIISPKVKMALRTSGHLLLGVVRIYHRKAKYLLADCNEAFIKIKMAFRPGVVDLPEENREAAYNAITLPEEFHDFDQPLPDLDDIDVAQQFSLNQSRVEEITMREEVGNISILQENDFGDFGMDDREIMREGSAFEDDDMLVSTTTSNLLLESEQSTSNLNEKINHLEYEDQYKDDNFGEGNDGGILDDKLISNNDGGIFDDPPALSEAGVMLPEQPAHDDMDEDDNVSMGGPDSPDSVDPVEPMPTMTDQTTLVPNEEEAFALEPIDITVKETKAKRKRKLIVDSVKELDSKTIRAQLSDYSDIVTTLDLAPPTKKLMMWKETGGVEKLFSLPAQPLWNNRLLKLFTRCLTPLVPEDLRKRRKGGEADNLDEFLKEFENPEVPREDQQQQHQQRDVIDEPIIEEPSRLQESVMEASRTNIDESAMPPPPPQGVKRKAGQIDPEPVMPPQQVEQMEIPPVELPPEEPPNICQLIPELELLPEKEKEKEKEKEDDEEEEDEDASGGDQDQEERRWNKRTQQMLHGLQRALAKTGAESISLLELCRNTNRKQAAAKFYSFLVLKKQQAIELTQEEPYSDIIATPGPRFHII

In this experiment the parent is B1. As to the kind of experiment: co-immunoprecipitation (anti-FLAG IP), capillary immunodetection assay; HEK293; read off a plot.
As to chain 1 D797A, the ratio to parent is about 0.06.
In the case of chain 1 D797K it was about 0.08.

The values above are taken from PMC7266993 (2020).
